# How the values were obtained:
# [1] = tested on: Escherichia coli; test: Fluorescence of FPs expressed in Escherichia coli; format: cell-based
# Description: TeAPCα gene (codons optimized for Escherichia coli) was made by GenScript. Mutations were placed by random mutagenesis using GeneMorphII Random Mutagenesis Kit (Agilent Technologies). Screens for mutants that fluoresce with PCB or BV were performed by subcloning into a pBAD vector (Life Technologies) that expressed cyanobacteria Synechocystis HO-1 and Synechocystis PcyA genes for PCB production and Synechocystis HO-1 only for BV production, as previously described^34. Libraries were expressed in TOP 10 Electrocompetent Escherichia coli cells (Life Technologies) with addition of 0.2% arabinose to LB agar plates (FPs were constitutively expressed in Escherichia coli). Fluorescence was imaged on plates using a BioSpectrum AC Imaging System (UVP) with EX/EM=628(40)/690(50) nm for FPs+PCB, EX/EM=685(40)/710LP nm for rounds 4 and 5 FPs+BV, and EX/EM=650(13)/690(50) nm for Cy5-like FPs+BV (rounds 6-12). At round 6, 5-10 of the brightest colonies on each plate were combined in LB+0.2% arabinose, grown ˜18 h, mixture of plasmid DNA was purified, and TOP10 cells were transformed and plated on LB agar plates+0.2% arabinose. Fluorescence was screened on plates (as described above), 10-20 of the brightest colonies were screened in liquid culture fluorescence (FIG. 7a-e), plasmid DNA was purified, and DNA was sequenced. The plasmid DNA of 2-3 of the brightest FPs was chosen for mutagenesis for the subsequent round. When choosing DNA for subsequent mutagenesis rounds, genes with increased and/or novel silent DNA mutations were chosen over other DNA that had the same DNA and/or protein sequence of the previous round. Site-specific mutagenesis was performed using QuikChange Lightning Mutagenesis Kit (Agilent Technologies) to create smURFP (C4S mutation) and smURFP C52S.
# [2] = tested on: primary cortical neurons; test: Rat primary neuronal cultures transduced with smURFP T2A mCherry lentivirus; format: cell-based; settings: 15 d after transduction
# Source text: smURFP-T2A-mCherry (GenBank AY678264), smURFP-T2A-mCardinal, smURFP, and mCardinal (Addgene 51311) were subcloned in a generation-two lentiviral vector with the CMV promoter for constitutive expression. Viruses were produced as described^45. The procedures for extracting cultured neurons from rat pups were approved by the UCSD Institutional Animal Care and Use Committee (IACUC, #503172R) and are consistent with the recommendations of the American Veterinary Medical Association. Primary cortical neurons were dissociated by papain from postnatal day 2 Sprague Dawley rats (n=6) of either sex and combined, plated on poly-D-lysine-coated glass-bottom culture dishes (MatTek, #P35G-0-14-C), and cultured in Neurobasal A medium+1×B27 supplement (Life Technologies)+2 mM GlutaMAX (Life Technologies)+1×penicillin-streptomycin (Fisher Scientific). Prior to fluorescence imaging, 25 μM BV was added for 10 min, removed, and washed with 2×2 ml Hank's Balanced Salt Solution (HBSS, Life Technologies)+2 g/L glucose+20 mM HEPES (pH 7.4), referred to as imaging solution. Fluorescence imaging was performed in vitro 15 d after infection using a Zeiss Axiovert 200M inverted microscope controlled by SlideBook software. FPs were imaged as follows: smURFP and TDsmURFP, EX/EM=628(40)/680(30) nm; and mCherry, EX/EM=580(20)/653(95) nm.
molecule,measurement,setting,value
"smURFP: small ultra-red fluorescent protein, SEQ ID NO: 13, homodimer, covalently attaches biliverdin (protein, homodimer; biliverdin chromophore; smRUFP Variant Polypeptide) MKTSEQRVNIATLLTENKKKIVDKASQDLWRRHPDLIAPGGIAFSQRDRALCLRDYGWFLHLITFCLLAGDKGPIESIGLISIREMYNSLGVPVPAMMESIRCLKEASLSLLDEEDANETAPYFDYIIKAMS",fluorescence when expressed in E. coli (qualitative),[1],greater than that of infrared FPs IFP1.4 and iRFP713
same,fold brighter than R1+PCB,[1]; expressed in E. coli,~650 fold
same,lysosomal aggregation in neuronal culture,[2],not seen

# Source: patent US10501502B2, “Allophycocyanin alpha-subunit evolved labeling proteins (smURFPs)” (The Regents of the University of California, priority 2016, dated 2019)
